The Kd is the free concentration of one partner at which half of the binding sites on the other are occupied at equilibrium, for simple one-to-one binding. The koff is the first-order rate constant of dissociation. In general, kon refers to the rate constant with which the complex forms. As usually defined, the IC50 is the concentration needed to halve the response being measured.

In experiment [1] the target is T1, mouse Ang2 (Accession # NP-031452) (R&D Systems) (mouse, UniProt O35608 19-496, limits assumed).
T1 construct: Bought protein; also called mAng2
T1 sequence (looked up): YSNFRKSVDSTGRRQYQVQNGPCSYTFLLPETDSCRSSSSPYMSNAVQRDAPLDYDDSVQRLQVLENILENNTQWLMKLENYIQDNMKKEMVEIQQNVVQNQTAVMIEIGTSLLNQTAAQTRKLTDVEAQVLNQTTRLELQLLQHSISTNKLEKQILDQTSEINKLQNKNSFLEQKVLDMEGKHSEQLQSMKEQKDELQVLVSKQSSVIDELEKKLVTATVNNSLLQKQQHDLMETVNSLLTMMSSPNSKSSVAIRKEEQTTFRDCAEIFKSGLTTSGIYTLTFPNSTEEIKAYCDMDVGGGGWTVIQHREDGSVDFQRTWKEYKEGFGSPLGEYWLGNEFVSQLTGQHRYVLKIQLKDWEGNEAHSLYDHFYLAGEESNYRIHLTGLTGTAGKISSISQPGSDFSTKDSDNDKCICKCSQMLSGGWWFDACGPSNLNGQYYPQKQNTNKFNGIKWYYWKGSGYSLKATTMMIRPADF
As to the kind of experiment: ELISA, antigen coated, IgG, anti-hFc-HRP; 50% binding concentration (Kd). As for the experimental part: To measure binding of the antibodies prepared above with each antigen, ELISA was performed. A 96-well MaxiSorp™ flat-bottom plate (Nunc) was coated with 5˜20 μg/ml of human Ang2 and mouse Ang2 (Accession # NP_{—}031452) (both, R&D Systems). After that, the plate was washed five times with 0.05% (v/v) Tween-20-containing PBS and then blocked with 1% (v/v) BSA-containing PBS at a room temperature for 2 hours. The anti-Ang2 antibodies in their IgG forms prepared above (0.001, 0.01, 0.1, 1, 10, 100, and 1000 nM) were added to each well of the plate which was then allowed to react at a room temperature for 2 hours.
(§1) Thereafter, the plate was washed five times with 0.05% Tween-20-containing PBS and then, an HRP-conjugated anti-human FC (Anti-hFc-HRP conjugated) antibody (SIGMA) diluted in 1% (v/v) BSA-containing PBS at 1:5,000 ratio (v/v) was added in the amount of 50 μl to each well to react at a room temperature for 1 hour, followed by washing five times with 0.1% (v/v) Tween-20-containing PBS. Finally, 100 μl of TMB substrate (cell signal) was added to each well of the plate to induce color development at a room temperature for 3 min and then, the reaction was ceased by the addition of 50 μl of 5N H₂SO₄ solution and OD450 values were measured on a plate reader (Molecular Devices).
On the technique in general: In an ELISA, binding on a coated surface is turned into a signal by an enzyme label.

Experiment [2] has as its target T2, recombinant hAng2 (C-His, R&D Systems) (human, UniProt O15123 19-496).
T2 construct: Bought protein captured on an anti-His chip; not shown: C-terminal His tag
T2 sequence: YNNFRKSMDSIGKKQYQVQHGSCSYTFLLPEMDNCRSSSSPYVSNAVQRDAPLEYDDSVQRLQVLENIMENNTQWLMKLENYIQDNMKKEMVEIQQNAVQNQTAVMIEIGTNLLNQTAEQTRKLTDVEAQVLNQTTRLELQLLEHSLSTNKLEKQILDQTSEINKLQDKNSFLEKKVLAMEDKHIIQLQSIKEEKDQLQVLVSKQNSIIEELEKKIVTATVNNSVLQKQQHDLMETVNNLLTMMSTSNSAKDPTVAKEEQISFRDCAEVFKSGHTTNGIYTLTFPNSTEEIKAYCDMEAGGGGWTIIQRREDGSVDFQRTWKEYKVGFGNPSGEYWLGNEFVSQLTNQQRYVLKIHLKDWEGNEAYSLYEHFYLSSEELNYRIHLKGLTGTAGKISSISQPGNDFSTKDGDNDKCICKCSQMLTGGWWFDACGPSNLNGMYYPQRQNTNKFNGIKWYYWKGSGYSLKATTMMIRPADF
As to the kind of experiment: SPR, BIAcore T100, hAng2-His captured on anti-His CM5 chip, antibody flowed. As for the experimental part: To measure accurate affinities toward an anti-Ang2 antigen, antigen affinities were measured by a SPR method using a BIAcore T100 (GE Healthcare). The SPR method uses refractive index change of light which passes a sensor chip according to the state of materials coated onto the sensor chip, and if an antigen or an antibody is flowed onto a chip coated with the antigen or antibody, it causes changes in refractive index due to their binding and Kd values are thus calculated from the measured values.
First, anti-His antibody was immobilized on a CM5 sensor chip (GE healthcare) up to 8,000 RU levels using a pH 5.0 acetate solution and an amine coupling kit (GE Healthcare). 6 μg/ml of a recombinant hAng2 (C-His, R&D Systems) protein was flowed onto the chip to be captured at 100 to 200 RU levels.
A general note: Surface plasmon resonance follows binding to a sensor surface in real time, without labels.

A further experiment concerns the target T3, FLAG-Tagged hAng2 (human, UniProt O15123 19-496, limits assumed).
T3 construct: also called FLAG-Ang2; non-mutated Ang2
T3 sequence: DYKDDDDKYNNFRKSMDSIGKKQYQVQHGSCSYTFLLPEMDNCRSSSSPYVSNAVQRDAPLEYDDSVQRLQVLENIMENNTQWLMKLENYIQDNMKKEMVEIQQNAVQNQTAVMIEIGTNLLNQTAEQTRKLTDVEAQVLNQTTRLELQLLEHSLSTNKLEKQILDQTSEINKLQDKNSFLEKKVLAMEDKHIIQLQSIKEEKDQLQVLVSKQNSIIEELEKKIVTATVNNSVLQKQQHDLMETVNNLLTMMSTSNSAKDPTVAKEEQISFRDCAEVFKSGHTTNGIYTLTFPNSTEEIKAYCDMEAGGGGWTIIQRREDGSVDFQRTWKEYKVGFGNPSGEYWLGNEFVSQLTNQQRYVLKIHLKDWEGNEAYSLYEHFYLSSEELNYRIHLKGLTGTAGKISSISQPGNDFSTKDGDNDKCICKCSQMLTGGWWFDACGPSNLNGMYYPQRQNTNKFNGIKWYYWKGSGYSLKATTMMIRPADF
As to the kind of experiment: competitive ELISA: hTie2-Fc coated, 400 ng/ml FLAG-hAng2 plus IgG, anti-FLAG-HRP. The method, then:
To verify molecular interaction of the bound assemblies, a competitive ELISA was performed. A 96-well MaxiSorp™ flat-bottom plate (Nunc) was coated with […] of hTie2-Fc (R&D Systems), which is a protein with the Fc of human IgG1 bound thereto. After that, the plate was washed five times with 0.05% (v/v) Tween-20-containing PBS (Phosphate Buffer Saline) and then blocked with 1% (v/v) BSA (Bovine serum albumin; Sigma)-containing PBS at a room temperature for 2 hours.
as §1, with “an HRP-conjugated anti-FLAG antibody (SIGMA)” for “an HRP-conjugated anti-human FC (Anti-hFc-HRP conjugated) antibody (SIGMA)”, “amount of 100 μl to” for “amount of 50 μl to”, “for 3 min. Then, the reaction” for “for 3 min and then, the reaction”

B1: SAIT-ANG-2-AB-4-F11 (IgG form) (antibody, V domains shown)
VH: EVQLLESGGGLVQTGGSLRLSCAASGFTFSDYAMSWVRQAPGKGLEWVSSIYPDDGNTYYADSVKGRFTISRDNSKNTLYLQMNSLRAEDTAVYYCAKHPVRLNLHPMYYYYGMDVWGQGTLVTVSS
VL: QSVLTQPPSASGTPGQRVTISCTGSSSNIGNNAVSWYQQLPGTAPKLLIYSDSQRPSGVPDRFSGSKSGTSASLAISGLRSEDEADYYCATWDYSLSAYVFGGGTKLTVLG
notes: Intact human antibody with human IgG1 constant region
On to B1, for which, in experiment [1], the Kd was 0.36 nM. Also, in experiment [2], the Kd stood at 0.44 nM, the koff is 0.000777 s⁻¹ and the kon stood at 1.76e+06 M⁻¹ s⁻¹. In addition, the IC50 with FLAG-Tagged hAng2 worked out at 0.37 nM.

B2: SAIT-ANG-2-AB-3-D3 (IgG form) (antibody, V domains shown)
VH: EVQLLESGGGLVQPGGSLRLSCAASGFTFSDYDMSWVRQAPGKGLEWVSGISSDDGNTYYADSVKGRFTISRDNSKNTLYLQMNSLRAEDTAVYYCARPTIDKYTLRGYYSYGMDVWGQGTLVTVSS
VL: QSVLTQPPSASGTPGQRVTISCTGSSSNIGSNYVSWYQQLPGTAPKLLIYSDNKRPSGVPDRFSGSKSGTSASLAISGLRSEDEADYYCGTWDDSLNGYVFGGGTKLTVLG
notes: as for B1
B2 came in with a Kd in experiment [1] of 0.3 nM. Further, in experiment [2], the Kd was 0.47 nM, the off-rate constant (koff) came out at 0.000546 s⁻¹ and the kon turned out to be 1.16e+06 M⁻¹ s⁻¹. Further, the concentration for half-maximal inhibition (IC50) with FLAG-Tagged hAng2 turned out to be 0.44 nM.

B3: SAIT-ANG-2-AB-2-E6 (IgG form) (antibody, V domains shown)
VH: EVQLLESGGGLVQTGGSLRLSCAASGFTFSDYAMSWVRQAPGKGLEWVSAIYPDSGNKYYADSVKGRFTISRDNSKNTLYLQMNSLRAEDTAVYYCARHSSDPKVKSGYYDDGMDVWGQGTLVAVSS
VL: QSVLTQPPSASGTPGQRVTISCSGSSSNIGNNAVNWYQQLPGTAPKLLIYADSNRPSGVPDRFSGSKSGTSASLAISGLRSEDEADYYCGSWDYSLSGYVFGGGTKLTVLG
notes: Intact human antibody: VH cloned into a vector with the constant region and Fc region of human IgG1, VL into pFUSE2-CLIg-hl2 (light chain constant region)
For the molecule B3, in experiment [1], binding was characterised by a dissociation constant (Kd) of 0.35 nM. Also, in experiment [2], the dissociation constant Kd amounted to 0.65 nM, the koff was 0.000795 s⁻¹ and the kon turned out to be 1.22e+06 M⁻¹ s⁻¹. The IC50 with FLAG-Tagged hAng2 came out at 0.605 nM.

B4: SAIT-ANG-2-AB-4-F5 (IgG form) (antibody, V domains shown)
VH: EVQLLESGGGLVQPGGSLRLSCAASGFTFSDYDMSWVRQAPGKGLEWVSSISHGDSNKYYADSVKGRFTISRDNSKNTLYLQMNSLRAEDTAVYYCAKSSGIQESPPTYYYYGMDVWGQGTLVTVSS
VL: QSVLTQPPSASGTPGQRVTISCSGSSSNIGSNAVNWYQQLPGTAPKLLIYADSNRPSGVPDRFSGSKSGTSASLAISGLRSEDEADYYCGSWDYSLSGYVFGGGTKLTVLG
notes: as for B1
In the case of B4, in experiment [2], the Kd is 0.589 nM, the koff came out at 0.00112 s⁻¹ and the kon was determined as 1.9e+06 M⁻¹ s⁻¹. Moreover, the concentration for half-maximal inhibition (IC50) with FLAG-Tagged hAng2 was 1.52 nM.

B5: SAIT-ANG-2-AB-8-A5 (IgG form) (antibody, V domains shown)
VH: EVQLLESGGGLVQPGGSLRLSCAASGFTFSDYYMSWVRQAPGKGLEWVSGIYPSGGSTYYADSVKGRFTISRDNSKNTLYLQMNSLRAEDTAVYYCARDPSTLTYAGFDYWGQGTLVTVSS
VL: QSVLTQPPSASGTPGQRVTISCSGSSSNIGNNYVTWYQQLPGTAPKLLIYADSHRPSGVPDRFSGSKSGTSASLAISGLRSEDEADYYCATWDYSLSGYVFGGGTKLTVLG
notes: as for B1
For B5, in experiment [1], the Kd came to 0.19 nM. Further, in experiment [2], the Kd stood at 0.074 nM, the koff stood at 0.000327 s⁻¹ and the kon amounted to 4.4e+06 M⁻¹ s⁻¹. Also, the 50% inhibitory concentration (IC50) in the experiment with FLAG-Tagged hAng2 was 0.341 nM.

B6: SAIT-ANG-2-AB-7-C9 (IgG form) (antibody, V domains shown)
VH: EVQLLESGGGLVQPGGSLRLSCAASGFTFSNYAMSWVRQAPGKGLEWVSAISSGGGNIYYADSVKGRFTISRDNSKNTLYLQMNSLRAEDTAVYYCAKSGIQPSPPSMSSAYAMDVWGQGTLVTVSS
VL: QSVLTQPPSASGTPGQRVTISCSGSSSNIGNNDVYWYQQLPGTAPKLLIYANSHRPSGVPDRFSGSKSGTSASLAISGLRSEDEADYYCGTWDYSLSGYVFGGGTKLTVLG
notes: as for B1
For B6, in experiment [2], the Kd turned out to be 0.205 nM, the dissociation rate constant (koff) stood at 0.000366 s⁻¹ and the kon was found to be 1.78e+06 M⁻¹ s⁻¹. Also, the IC50 in the experiment with FLAG-Tagged hAng2 was determined as 0.392 nM.

The record behind these values is patent US20150152192A1 (SAMSUNG ELECTRONICS, published 2015).
